We go through one substance from patent publication US20080220450A1, “Population Based Prediction Methods for Immune Response Determinations and Methods for Verifying Immunological Response Data” (Danisco US, Inc., Genencor Division, priority 2004, published 2008).

This test has as its target HLA-DR6(13) (human). As to the kind of experiment: competition assay against a standard peptide on purified HLA class II.

In the case of “B. amyloliquifaciens subtilisin BPN' Y217L epitope peptide, amino acids 70-84 (from UniProt P00782 177-191)”, the IC50 (in general, the concentration that gives 50% inhibition) was determined as 0.69 nM. This lies in the sub-nanomolar range.
